Reference: patent US20150197564A1 (Regeneron, published 2015)

Key:
Assay in all cases: SPR Biacore, antigen captured, 25C, pH 7.4, HBS-EP
hANGPTL3(17-460)-His = target: T1, hANGPTL3(17-460)-His (human, UniProt Q9Y5C1 17-460)
T1 construct: Bought protein (R&D Systems); also called full-length mature human ANGPTL3 with a C-terminal decahistidine tag; Human ANGPTL3 (17-460)-His
T1 sequence: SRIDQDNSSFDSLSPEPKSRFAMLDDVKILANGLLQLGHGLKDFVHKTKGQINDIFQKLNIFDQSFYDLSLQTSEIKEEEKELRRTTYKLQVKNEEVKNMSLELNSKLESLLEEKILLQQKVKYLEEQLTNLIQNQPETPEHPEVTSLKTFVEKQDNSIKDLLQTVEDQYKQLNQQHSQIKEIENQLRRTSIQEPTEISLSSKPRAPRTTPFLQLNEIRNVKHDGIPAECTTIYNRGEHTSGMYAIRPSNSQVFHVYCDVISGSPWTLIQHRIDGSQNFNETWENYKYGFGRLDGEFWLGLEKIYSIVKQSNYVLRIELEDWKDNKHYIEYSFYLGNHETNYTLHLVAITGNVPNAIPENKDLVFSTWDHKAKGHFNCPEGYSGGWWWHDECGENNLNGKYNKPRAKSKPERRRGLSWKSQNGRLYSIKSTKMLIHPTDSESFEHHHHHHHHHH
Method: (§1) All kinetic binding experiments were performed at 25° C. or 37° C. on a BIACORE™ T200 label-free molecular interaction instrument (GE Healthcare) using a CM5 sensor chip. Briefly, an antigen capture surface was generated by covalently coupling either an anti-mouse IgG-specific antibody (anti-mFc; GE Healthcare; catalog #BR-1008-38) or an anti-pentahistidine-specific antibody (Qiagen; catalog #34660) to the surface of a CM5 sensor chip using a standard amine coupling method.

hANGPTL3(17-169)-mFc = target: T2, hANGPTL3(17-169)-mFc (human)
T2 construct: also called N-terminal coiled-coil domain of hANGPTL3 with a C-terminal mouse Fc fusion
T2 chain: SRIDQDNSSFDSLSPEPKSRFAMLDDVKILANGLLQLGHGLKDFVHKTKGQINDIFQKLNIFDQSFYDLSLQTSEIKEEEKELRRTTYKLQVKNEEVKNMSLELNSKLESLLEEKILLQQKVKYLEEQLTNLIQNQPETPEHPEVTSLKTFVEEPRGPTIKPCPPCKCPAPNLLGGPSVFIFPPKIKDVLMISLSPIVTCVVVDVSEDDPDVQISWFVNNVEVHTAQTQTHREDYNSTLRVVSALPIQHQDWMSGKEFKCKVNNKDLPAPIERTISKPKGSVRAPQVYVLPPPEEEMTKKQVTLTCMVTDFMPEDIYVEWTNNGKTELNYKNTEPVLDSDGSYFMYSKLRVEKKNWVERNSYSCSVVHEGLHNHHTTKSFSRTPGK
Method: as §1

hANGPTL3(17-170)-His = target: T3, hANGPTL3(17-170)-His (human, UniProt Q9Y5C1 17-170)
T3 construct: also called N-terminal coiled-coil domain of hANGPTL3 with a C-terminal hexahistidine tag; Human ANGPTL3 (17-170)-His
T3 sequence: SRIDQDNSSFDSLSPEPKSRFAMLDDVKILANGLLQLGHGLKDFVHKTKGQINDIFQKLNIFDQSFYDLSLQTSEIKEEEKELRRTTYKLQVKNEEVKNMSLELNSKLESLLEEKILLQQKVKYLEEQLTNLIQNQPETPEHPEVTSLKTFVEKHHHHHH
Method: as §1

MfANGPTL3(17-170)-mmH = target: T4, MfANGPTL3(17-170)-mmH (Macaca fascicularis)
T4 construct: also called N-terminal coiled-coil domain of ANGPTL3 from Macaca fascicularis with myc-myc-hexahistidine tag; Monkey ANGPTL3 (17-170)-mmH
T4 chain: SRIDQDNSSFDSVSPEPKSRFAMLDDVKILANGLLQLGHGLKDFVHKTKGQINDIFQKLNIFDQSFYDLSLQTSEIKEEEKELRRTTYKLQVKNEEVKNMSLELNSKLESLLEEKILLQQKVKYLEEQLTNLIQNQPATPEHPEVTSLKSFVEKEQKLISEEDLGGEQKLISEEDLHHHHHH
Method: as §1

mANGPTL3(17-240)-His = target: T5, mANGPTL3(17-240)-His (Mus musculus, UniProt Q9R182 17-240)
T5 construct: also called N-terminal coiled-coil domain of ANGPTL3 from Mus musculus with a hexahistidine tag; Mouse ANGPTL3 (17-240)-His
T5 sequence: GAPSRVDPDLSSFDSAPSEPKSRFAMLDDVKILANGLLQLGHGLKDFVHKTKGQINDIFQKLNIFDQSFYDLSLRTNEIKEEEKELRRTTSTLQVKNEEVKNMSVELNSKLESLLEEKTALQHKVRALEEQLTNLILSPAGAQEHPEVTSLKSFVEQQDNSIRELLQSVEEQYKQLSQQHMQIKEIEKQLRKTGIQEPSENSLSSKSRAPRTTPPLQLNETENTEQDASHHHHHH
Method: as §1

rANGPTL3(17-240)-mmH = target: T6, rANGPTL3(17-240)-mmH (Rattus norvegicus)
T6 construct: also called N-terminal coiled-coil domain of ANGPTL3 from Rattus norvegicus with myc-myc-hexahistidine tag
T6 chain: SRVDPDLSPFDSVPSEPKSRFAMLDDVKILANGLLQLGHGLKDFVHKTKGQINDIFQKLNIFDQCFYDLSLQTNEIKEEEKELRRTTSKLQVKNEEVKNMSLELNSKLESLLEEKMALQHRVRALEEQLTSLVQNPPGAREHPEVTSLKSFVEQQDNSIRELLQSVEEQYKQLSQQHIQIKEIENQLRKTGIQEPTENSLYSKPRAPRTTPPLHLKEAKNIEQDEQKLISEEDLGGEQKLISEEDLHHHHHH
Method: as §1

Kd (hANGPTL3(17-460)-His): 1.35 nM
koff (hANGPTL3(17-460)-His): 0.000464 s⁻¹
kon (hANGPTL3(17-460)-His): 344000 M⁻¹ s⁻¹
t1/2 (hANGPTL3(17-460)-His): 25 min
Kd (hANGPTL3(17-169)-mFc): 0.659 nM
koff (hANGPTL3(17-169)-mFc): 0.000383 s⁻¹
kon (hANGPTL3(17-169)-mFc): 582000 M⁻¹ s⁻¹
t1/2 (hANGPTL3(17-169)-mFc): 30 min
Kd (hANGPTL3(17-170)-His): 0.938 nM
koff (hANGPTL3(17-170)-His): 0.000912 s⁻¹
kon (hANGPTL3(17-170)-His): 973000 M⁻¹ s⁻¹
t1/2 (hANGPTL3(17-170)-His): 12.7 min
Kd (MfANGPTL3(17-170)-mmH): 0.396 nM
koff (MfANGPTL3(17-170)-mmH): 0.000535 s⁻¹
kon (MfANGPTL3(17-170)-mmH): 1.35e+06 M⁻¹ s⁻¹
t1/2 (MfANGPTL3(17-170)-mmH): 21.6 min
Kd (mANGPTL3(17-240)-His): 0.458 nM
koff (mANGPTL3(17-240)-His): 0.000307 s⁻¹
kon (mANGPTL3(17-240)-His): 670000 M⁻¹ s⁻¹
t1/2 (mANGPTL3(17-240)-His): 37.6 min
Kd (rANGPTL3(17-240)-mmH): 0.53 nM
koff (rANGPTL3(17-240)-mmH): 0.000718 s⁻¹
kon (rANGPTL3(17-240)-mmH): 1.35e+06 M⁻¹ s⁻¹
t1/2 (rANGPTL3(17-240)-mmH): 16.1 min
B1: H4H1276S (antibody, IgG4, V domains shown)
VH: EVQLVESGGGVIQPGGSLRLSCAASGFTFDDYAMNWVRQGPGKGLEWVSAISGDGGSTYYADSVKGRFTISRDNSKNSLYLQMNSLRAEDTAFFYCAKDLRNTIFGVVIPDAFDIWGQGTMVTVSS
VL: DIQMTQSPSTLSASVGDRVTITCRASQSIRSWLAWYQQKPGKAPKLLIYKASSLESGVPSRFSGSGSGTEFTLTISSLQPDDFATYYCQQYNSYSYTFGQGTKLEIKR
